Broadly, the stoichiometry N is the number of molecules, sites or subunits per partner or assembly.

Data set [1] addresses EssB-N, N-terminal cytoplasmic fragment of EssB (residues 12-226) (S. aureus subsp. aureus) (UniProt Q2G185). The experiment in a line: native gel or EMSA. On the technique in general: In EMSA bound probe runs differently from free probe, usually more slowly.
The target in data set [2] is EssBΔC, EssB truncated by 43 C-terminal residues, detergent-solubilised (S. aureus subsp. aureus) (UniProt Q2G185). The experiment in a line: SEC. On the technique in general: In gel filtration, larger molecules generally elute earlier.
Data set [3] deals with the molecule itself. The experiment in a line: native gel or EMSA.

Take “EssB-N, N-terminal cytoplasmic fragment of EssB (residues 12-226) (from UniProt Q2G185 12-226) (domain or fragment)”: the stoichiometry N in data set [1] is 2. In data set [2], “EssBΔC, EssB truncated by 43 C-terminal residues, detergent-solubilised (from UniProt Q2G185 1-400) (domain or fragment)” had a stoichiometry N of 2.

B1: EssB-C, C-terminal fragment of EssB (residues 257-444) (domain or fragment, S. aureus subsp. aureus)
chain: GASERIEKGYQAFVKDDYTQVLNTYDDLDGKKLDKEALYIYAKSYIQTNKQGLEKDKKENLLNNVTPNSNKDYLLYWMELGQGHLDEAINIATYLDDNDITKLALINKLNEIKNNGDLSNDKRSEETKKYNDKLQDILDKEKQVKDEKAKSEEEKAKAKDEKLKQQEENEKKQKEQAQKDKEKRQEAERKK
Take B1: in data set [3], the “stoichiometry N” value was found to be 2.

B2: Full-length EssB (S. aureus), detergent-solubilised (natural protein, S. aureus subsp. aureus)
chain: GASMVKNHNPKNEMQDMLTPLDAEEAAKTKLRLDMREIPKSSIKPEHFHLMYLLEQHSPYFIDAELTELRDSFQIHYDINDNHTPFDNIKSFTKNEKLRYLLNIKNLEEVNRTRYTFVLAPDELFFTRDGLPIAKTRGLQNVVDPLPVSEAEFLTRYKALVICAFNEKQSFDALVEGNLELHKGTPFETKVIEAATLDLLTAFLDEQYQKQEQDYSQNYAYVRKVGHTVFKWVAIGMTTLSVLLIAFLAFLYFSVMKHNERIEKGYQAFVKDDYTQVLNTYDDLDGKKLDKEALYIYAKSYIQTNKQGLEKDKKENLLNNVTPNSNKDYLLYWMELGQGHLDEAINIATYLDDNDITKLALINKLNEIKNNGDLSNDKRSEETKKYNDKLQDILDKEKQVKDEKAKSEEEKAKAKDEKLKQQEENEKKQKEQAQKDKEKRQEAERKK
As for B2, the “stoichiometry N” value in data set [3] worked out at 2.

These data come from paper PMC3526858 (Biochemical Journal, 2012).
